Laboratory results: US20160033490A1

Molecular target: HRV-3C protease biosensor: blocked hybrid scFv of H6-MG (VH) and HL1-TO1 (VL) with the HRV-3C recognition sequence […]in the peptide linker
Experiment: cell-based or functional assay

Substance Human Rhinovirus 3C protease (enzyme) has a kinetic assay of MG fluorescence activation, time to complete activation (1 unit protease, 25° C.) of 30 min.
